Here are results for five molecules from PMC3859580, “The PS1 Hairpin of Mcm3 Is Essential for Viability and for DNA Unwinding In Vitro” (PLoS ONE, 2013).

To fix the notation:
B1: Mcm3 (wild type), subunit of Saccharomyces cerevisiae Mcm2-7 (natural protein, S. cerevisiae, UniProt P24279 1-971, looked up)
chain: MEGSTGFDGDATTFFAPDAVFGDRVRRFQEFLDTFTSYRDSVRSIQVYNSNNAANYNDDQDDADERDLLGDDDGDDLEKEKKAASSTSLNILPHRIIISLDDLREFDRSFWSGILVEPAYFIPPAEKALTDLADSMDDVPHPNASAVSSRHPWKLSFKGSFGAHALSPRTLTAQHLNKLVSVEGIVTKTSLVRPKLIRSVHYAAKTGRFHYRDYTDATTTLTTRIPTPAIYPTEDTEGNKLTTEYGYSTFIDHQRITVQEMPEMAPAGQLPRSIDVILDDDLVDKTKPGDRVNVVGVFKSLGAGGMNQSNSNTLIGFKTLILGNTVYPLHARSTGVAARQMLTDFDIRNINKLSKKKDIFDILSQSLAPSIYGHDHIKKAILLMLMGGVEKNLENGSHLRGDINILMVGDPSTAKSQLLRFVLNTASLAIATTGRGSSGVGLTAAVTTDRETGERRLEAGAMVLADRGVVCIDEFDKMTDVDRVAIHEVMEQQTVTIAKAGIHTTLNARCSVIAAANPVFGQYDVNRDPHQNIALPDSLLSRFDLLFVVTDDINEIRDRSISEHVLRTHRYLPPGYLEGEPVRERLNLSLAVGEDADINPEEHSNSGAGVENEGEDDEDHVFEKFNPLLQAGAKLAKNKGNYNGTEIPKLVTIPFLRKYVQYAKERVIPQLTQEAINVIVKNYTDLRNDDNTKKSPITARTLETLIRLATAHAKVRLSKTVNKVDAKVAANLLRFALLGEDIGNDIDEEESEYEEALSKRSPQKSPKKRQRVRQPASNSGSPIKSTPRRSTASSVNATPSSARRILRFQDDEQNAGEDDNDIMSPLPADEEAELQRRLQLGLRVSPRRREHLHAPEEGSSGPLTEVGTPRLPNVSSAGQDDEQQQSVISFDNVEPGTISTGRLSLISGIIARLMQTEIFEEESYPVASLFERINEELPEEEKFSAQEYLAGLKIMSDRNNLMVADDKVWRV
notes: source: E. coli, purified, reconstituted into Mcm2-7 as described [27]
B2: Mcm3_(K499A), Mcm3 with the PS1 hairpin mutation (natural protein, S. cerevisiae, UniProt P24279 1-971, looked up)
chain: B1 chain with K499A
notes: Mcm3, S. cerevisiae, K499A; NdeI-SacI fragment of mcm3_(K499A)-YCplac111 in pET24a (pMD466); also called the Mcm3 subunit of Mcm2-7_(3K499A); source: E. coli BL21 DE3 Codon+, purified (ammonium sulfate, Q Sepharose, ssDNA-Sepharose, MonoQ, MonoS)
B3: Mcm7, subunit of Saccharomyces cerevisiae Mcm2-7 (natural protein, S. cerevisiae, UniProt P38132 1-845, looked up)
chain: MSAALPSIQLPVDYNNLFNEITDFLVTFKQDTLSSDATRNENEDENLDAENIEQHLLEKGPKYMAMLQKVANRELNSVIIDLDDILQYQNEKFLQGTQADDLVSAIQQNANHFTELFCRAIDNNMPLPTKEIDYKDDVLDVILNQRRLRNERMLSDRTNEIRSENLMDTTMDPPSSMNDALREVVEDETELFPPNLTRRYFLYFKPLSQNCARRYRKKAISSKPLSVRQIKGDFLGQLITVRGIITRVSDVKPAVEVIAYTCDQCGYEVFQEVNSRTFTPLSECTSEECSQNQTKGQLFMSTRASKFSAFQECKIQELSQQVPVGHIPRSLNIHVNGTLVRSLSPGDIVDVTGIFLPAPYTGFKALKAGLLTETYLEAQFVRQHKKKFASFSLTSDVEERVMELITSGDVYNRLAKSIAPEIYGNLDVKKALLLLLVGGVDKRVGDGMKIRGDINVCLMGDPGVAKSQLLKAICKISPRGVYTTGKGSSGVGLTAAVMKDPVTDEMILEGGALVLADNGICCIDEFDKMDESDRTAIHEVMEQQTISISKAGINTTLNARTSILAAANPLYGRYNPRLSPLDNINLPAALLSRFDILFLMLDIPSRDDDEKLAEHVTYVHMHNKQPDLDFTPVEPSKMREYIAYAKTKRPVMSEAVNDYVVQAYIRLRQDSKREMDSKFSFGQATPRTLLGIIRLSQALAKLRLADMVDIDDVEEALRLVRVSKESLYQETNKSKEDESPTTKIFTIIKKMLQETGKNTLSYENIVKTVRLRGFTMLQLSNCIQEYSYLNVWHLINEGNTLKFVDDGTMDTDQEDSLVSTPKLAPQTTASANVSAQDSDIDLQDA
notes: Mcm7, S. cerevisiae, recombinant subunit; source: E. coli, purified, reconstituted into Mcm2-7 as described [27]
B4: Mcm4, subunit of Saccharomyces cerevisiae Mcm2-7 (natural protein, S. cerevisiae, UniProt P30665 1-933, looked up)
chain: MSQQSSSPTKEDNNSSSPVVPNPDSVPPQLSSPALFYSSSSSQGDIYGRNNSQNLSQGEGNIRAAIGSSPLNFPSSSQRQNSDVFQSQGRQGRIRSSASASGRSRYHSDLRSDRALPTSSSSLGRNGQNRVHMRRNDIHTSDLSSPRRIVDFDTRSGVNTLDTSSSSAPPSEASEPLRIIWGTNVSIQECTTNFRNFLMSFKYKFRKILDEREEFINNTTDEELYYIKQLNEMRELGTSNLNLDARNLLAYKQTEDLYHQLLNYPQEVISIMDQTIKDCMVSLIVDNNLDYDLDEIETKFYKVRPYNVGSCKGMRELNPNDIDKLINLKGLVLRSTPVIPDMKVAFFKCNVCDHTMAVEIDRGVIQEPARCERIDCNEPNSMSLIHNRCSFADKQVIKLQETPDFVPDGQTPHSISLCVYDELVDSCRAGDRIEVTGTFRSIPIRANSRQRVLKSLYKTYVDVVHVKKVSDKRLDVDTSTIEQELMQNKVDHNEVEEVRQITDQDLAKIREVAAREDLYSLLARSIAPSIYELEDVKKGILLQLFGGTNKTFTKGGRYRGDINILLCGDPSTSKSQILQYVHKITPRGVYTSGKGSSAVGLTAYITRDVDTKQLVLESGALVLSDGGVCCIDEFDKMSDSTRSVLHEVMEQQTISIAKAGIITTLNARSSILASANPIGSRYNPNLPVTENIDLPPPLLSRFDLVYLVLDKVDEKNDRELAKHLTNLYLEDKPEHISQDDVLPVEFLTMYISYAKEHIHPIITEAAKTELVRAYVGMRKMGDDSRSDEKRITATTRQLESMIRLAEAHAKMKLKNVVELEDVQEAVRLIRSAIKDYATDPKTGKIDMNLVQTGKSVIQRKLQEDLSREIMNVLKDQASDSMSFNELIKQINEHSQDRVESSDIQEALSRLQQEDKVIVLGEGVRRSVRLNNRV
notes: Mcm4, S. cerevisiae, recombinant subunit; source: E. coli, purified, reconstituted into Mcm2-7 as described [27]
B5: Mcm2, subunit of Saccharomyces cerevisiae Mcm2-7 (natural protein, S. cerevisiae, UniProt P29469 1-868, looked up)
chain: MSDNRRRRREEDDSDSENELPPSSPQQHFRGGMNPVSSPIGSPDMINPEGDDNEVDDVPDIDEVEEQMNEVDLMDDNMYEDYAADHNRDRYDPDQVDDREQQELSLSERRRIDAQLNERDRLLRNVAYIDDEDEEQEGAAQLDEMGLPVQRRRRRRQYEDLENSDDDLLSDMDIDPLREELTLESLSNVKANSYSEWITQPNVSRTIARELKSFLLEYTDETGRSVYGARIRTLGEMNSESLEVNYRHLAESKAILALFLAKCPEEMLKIFDLVAMEATELHYPDYARIHSEIHVRISDFPTIYSLRELRESNLSSLVRVTGVVTRRTGVFPQLKYVKFNCLKCGSILGPFFQDSNEEIRISFCTNCKSKGPFRVNGEKTVYRNYQRVTLQEAPGTVPPGRLPRHREVILLADLVDVSKPGEEVEVTGIYKNNYDGNLNAKNGFPVFATIIEANSIKRREGNTANEGEEGLDVFSWTEEEEREFRKISRDRGIIDKIISSMAPSIYGHRDIKTAVACSLFGGVPKNVNGKHSIRGDINVLLLGDPGTAKSQILKYVEKTAHRAVFATGQGASAVGLTASVRKDPITKEWTLEGGALVLADKGVCLIDEFDKMNDQDRTSIHEAMEQQSISISKAGIVTTLQARCSIIAAANPNGGRYNSTLPLAQNVSLTEPILSRFDILCVVRDLVDEEADERLATFVVDSHVRSHPENDEDREGEELKNNGESAIEQGEDEINEQLNARQRRLQRQRKKEEEISPIPQELLMKYIHYARTKIYPKLHQMDMDKVSRVYADLRRESISTGSFPITVRHLESILRIAESFAKMRLSEFVSSYDLDRAIKVVVDSFVDAQKVSVRRQLRRSFAIYTLGH
notes: Mcm2, S. cerevisiae, recombinant subunit; source: E. coli, purified, reconstituted into Mcm2-7 as described [27]

What all share (assay): SEC; individual purified Mcm subunits mixed in equal molar ratios to reconstitute the hexameric complex; elution from a gel filtration column, fractions analysed by SDS-PAGE
Common to all, as to conditions: both partners purified
For orientation: In gel filtration, larger molecules generally elute earlier.

For experiment [1], the target named is T1, Mcm6, subunit of Saccharomyces cerevisiae Mcm2-7 (S. cerevisiae, UniProt P53091 1-1017).
T1 construct: Mcm6, S. cerevisiae, recombinant subunit; source: E. coli, purified, reconstituted into Mcm2-7 as described [27]
T1 sequence (P53091 whole entry): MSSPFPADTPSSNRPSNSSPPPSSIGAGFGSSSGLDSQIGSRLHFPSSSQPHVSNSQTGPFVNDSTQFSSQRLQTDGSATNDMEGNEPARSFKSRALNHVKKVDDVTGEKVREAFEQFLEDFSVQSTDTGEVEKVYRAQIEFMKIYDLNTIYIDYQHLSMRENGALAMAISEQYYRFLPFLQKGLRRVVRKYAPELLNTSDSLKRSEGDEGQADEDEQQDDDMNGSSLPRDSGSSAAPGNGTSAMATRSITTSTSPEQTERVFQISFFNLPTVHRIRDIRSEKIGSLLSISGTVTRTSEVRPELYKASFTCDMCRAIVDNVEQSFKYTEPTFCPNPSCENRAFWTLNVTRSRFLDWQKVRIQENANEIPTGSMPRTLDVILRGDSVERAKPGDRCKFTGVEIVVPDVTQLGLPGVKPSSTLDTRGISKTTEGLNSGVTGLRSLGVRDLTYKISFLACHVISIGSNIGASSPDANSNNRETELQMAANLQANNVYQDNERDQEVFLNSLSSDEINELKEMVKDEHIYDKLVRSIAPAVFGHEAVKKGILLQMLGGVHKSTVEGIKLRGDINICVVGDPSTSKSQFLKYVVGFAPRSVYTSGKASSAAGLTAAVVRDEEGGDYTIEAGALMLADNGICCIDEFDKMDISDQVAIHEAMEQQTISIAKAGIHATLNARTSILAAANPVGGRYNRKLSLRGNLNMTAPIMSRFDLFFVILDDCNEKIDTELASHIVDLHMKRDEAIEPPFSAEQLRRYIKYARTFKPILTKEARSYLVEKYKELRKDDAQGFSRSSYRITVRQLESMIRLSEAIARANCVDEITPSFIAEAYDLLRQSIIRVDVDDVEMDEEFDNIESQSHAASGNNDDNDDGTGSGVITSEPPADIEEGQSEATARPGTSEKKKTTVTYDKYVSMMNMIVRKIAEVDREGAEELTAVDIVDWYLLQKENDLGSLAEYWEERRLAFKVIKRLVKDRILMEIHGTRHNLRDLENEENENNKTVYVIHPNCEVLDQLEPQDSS

For experiment [2], the target named is B1.
Experiment [3] addresses B2.

Where a chain is given by its changes, count along the chain named. Names may count otherwise.

For the molecule B1, the binding result in experiment [1] is given as “binds”.
On the same count and under the same terms, the value for B2 was “binds”.
On to B3, for which the binding result in experiment [2] and in experiment [3] was “binds” in each case.
Take B4: the binding result in experiment [2] and in experiment [3] was “binds” each time.
Regarding B5, the binding result in experiment [2] and in experiment [3] was “binds” in each case.
